Source: the Immune Epitope Database (IEDB)
pKd: −log10 of the molar value. Each block holds one sequence with its values, some of them ahead of it.

Legend:
[1] = molecular target: HLA-A*01:01; experiment: IEDB peptide-MHC binding, purified MHC/competitive/radioactivity; filed as Kd, often an IC50 or EC50 that approximates it; ≥ and ≤ were set here for values at or beyond the usual limits of such assays
[2] = molecular target: HLA-A*26:01; experiment: as above
[3] = molecular target: HLA-A*29:02; experiment: as above
[4] = molecular target: HLA-A*30:01; experiment: as above
[5] = molecular target: HLA-A*30:02; experiment: as above
[6] = molecular target: HLA-A*32:01; experiment: as above
[7] = molecular target: HLA-B*40:01; experiment: as above
[8] = molecular target: HLA-B*08:01; experiment: as above
[9] = molecular target: HLA-B*15:01; experiment: as above
[10] = molecular target: HLA-B*44:03; experiment: as above
[11] = molecular target: HLA-B*44:02; experiment: as above; details: source organism: Dengue virus 2 Jamaica/1409/1983
[12] = molecular target: HLA-A*26:01; experiment: IEDB peptide-MHC binding, purified MHC/direct/fluorescence; filed as Kd, often an IC50 or EC50 that approximates it; ≥ and ≤ were set here for values at or beyond the usual limits of such assays
[13] = molecular target: HLA-B*35:01; experiment: IEDB peptide-MHC binding, purified MHC/competitive/radioactivity; filed as Kd, often an IC50 or EC50 that approximates it; ≥ and ≤ were set here for values at or beyond the usual limits of such assays
[14] = molecular target: HLA-B*53:01; experiment: as above
[15] = molecular target: HLA-B*07:02; experiment: as above
[16] = molecular target: HLA-A*01:01; experiment: IEDB peptide-MHC binding, purified MHC/direct/fluorescence; filed as Kd, often an IC50 or EC50 that approximates it; ≥ and ≤ were set here for values at or beyond the usual limits of such assays; details: source organism: Corynebacterium glutamicum
[17] = molecular target: HLA-A*02:01; experiment: as above; details: source organism: Corynebacterium glutamicum
[18] = molecular target: HLA-A*03:01; experiment: as above; details: source organism: Corynebacterium glutamicum
[19] = molecular target: HLA-A*69:01; experiment: as above; details: source organism: Corynebacterium glutamicum
[20] = molecular target: HLA-B*07:02; experiment: as above; details: source organism: Corynebacterium glutamicum
[21] = molecular target: HLA-B*08:01; experiment: as above
[22] = molecular target: HLA-B*15:01; experiment: as above; details: source organism: Corynebacterium glutamicum
[23] = molecular target: HLA-B*27:05; experiment: as above; details: source organism: Corynebacterium glutamicum
[24] = molecular target: HLA-B*40:01; experiment: as above; details: source organism: Corynebacterium glutamicum
[25] = molecular target: HLA-B*58:01; experiment: as above; details: source organism: Corynebacterium glutamicum
[26] = molecular target: HLA-B*51:01; experiment: IEDB peptide-MHC binding, purified MHC/competitive/radioactivity; filed as Kd, often an IC50 or EC50 that approximates it; ≥ and ≤ were set here for values at or beyond the usual limits of such assays; details: source organism: Dengue virus 4 Philippines/H241/1956
[27] = source organism: Mammarenavirus guanaritoense
[28] = source organism: Dengue virus 1 Brazil/97-11/1997
[29] = source organism: Dengue virus 4 Philippines/H241/1956
[30] = source organism: Dengue virus 2 Peru/IQT2913/1996
[31] = source organism: Vaccinia virus WR
[32] = source organism: Dengue virus 2 Jamaica/1409/1983
[33] = source organism: Dengue virus 3 Martinique/1243/1999
[34] = source organism: Mammarenavirus brazilense
[35] = source organism: Dengue virus 1 Singapore/S275/1990
[36] = source organism: Corynebacterium glutamicum

Sequence: YSDPKRFFL
- pKd [1, 27]: 8.14
- pKd [2, 27]: ≤ 4.11
- pKd [3, 27]: ≤ 4.67
- pKd [4, 27]: 5.21
- pKd [5, 27]: 7.07
- pKd [6, 27]: ≤ 4.11

Sequence: LEENMDVEI
- pKd [7, 28]: 6.86

Sequence: EEYKRSGIL
- pKd [7, 29]: 7.03

Sequence: LLVLCVTQVL
- pKd [8, 30]: 4.89

Sequence: MYKKAEASF
- pKd [9, 31]: 7.16

Sequence: GQGPMKLVM
- pKd [9, 28]: 7.94

Sequence: NESDPEGAL
- pKd [7, 28]: 7.77

Sequence: VQQLTKRFSL
- pKd [8, 32]: 7.56

Sequence: LSANLFESQ
- pKd [9, 31]: 7.35

Sequence: QEVVVLGSQE
- pKd [7, 28]: 5.92
- pKd [10, 28]: 4.86

Sequence: LELTDALAL
- pKd [7, 32]: 8.55
- pKd [11]: 5.77
- pKd [10, 32]: 5.71

Sequence: DLLENLQTY
- pKd ([12]; source organism: Influenza A virus (A/Saudi Arabia/2581/2001(H1N2))): 6.67

Sequence: LSIFFIVVA
- pKd [9, 31]: 7.08

Sequence: LGAQALPVY
- pKd [5, 29]: 7.91
- pKd [9, 29]: 8.47
- pKd [13, 29]: 6.20

Sequence: IMKIGIGVL
- pKd ([9]; source organism: Dengue virus 3 Singapore/8120/1995): 6.91

Sequence: ESRKTFVEL
- pKd [8, 33]: 6.20

Sequence: NGKPKTFAI
- pKd [8, 31]: 5.68

Sequence: YNISRKIVY
- pKd [1, 34]: 5.97
- pKd [2, 34]: 5.54
- pKd [3, 34]: 5.63
- pKd [4, 34]: 5.18
- pKd [5, 34]: 5.47
- pKd [6, 34]: ≤ 4.44

Sequence: ELKTRYHSI
- pKd [8, 31]: 6.01

Sequence: MPPLRFLGE
- pKd [8, 29]: 5.59

Sequence: MIIMLIPTVM
- pKd [13, 30]: 5.55
- pKd [14, 30]: ≤ 4.57

Sequence: KPEFCIKVL
- pKd [15, 29]: 6.97

Sequence: LVLCVTQVLM
- pKd [13, 30]: 5.72

Sequence: SGIGTFLHY
- pKd [9, 31]: 7.63

Sequence: LACYRFVKF
- pKd [9, 31]: 6.84

Sequence: EIFEQPKAL
- pKd ([12]; source organism: Vibrio cholerae V52): 5.59

Sequence: FQSHQLWATL
- pKd [6, 35]: 5.71
- pKd [9, 35]: 7.52

- pKd [16]: ≤ 4.70
- pKd [17]: ≤ 4.70
- pKd [18]: ≤ 4.70
- pKd [12, 36]: ≤ 4.70
- pKd [19]: ≤ 4.70
- pKd [20]: 6.18
- pKd [21, 36]: 4.87
- pKd [22]: 5.48
- pKd [23]: ≤ 4.70
- pKd [24]: ≤ 4.70
- pKd [25]: ≤ 4.70
Sequence: ATFSRPGSL

Sequence: GPLVAGGLL
- pKd [15, 32]: 7.18

Sequence: FINSTCYVF
- pKd [9, 31]: 8.36

Sequence: FTVIALFLAH
- pKd [2, 28]: 5.11
- pKd [13, 28]: 6.19

Sequence: YSKLTSMHF
- pKd [9, 31]: 9.24

Sequence: LPESLETLML
- pKd [13, 29]: 6.20
- pKd [26]: ≤ 4.50
- pKd [14, 29]: 7.02

Sequence: MLLVLCAGQL
- pKd [8, 29]: 6.09

Sequence: GPMPVTAASA
- pKd [15, 33]: 8.24

Sequence: YLRRRIGMI
- pKd ([21]; source organism: Coxiella burnetii Q321): 8.22

Sequence: IMNRRKRSV
- pKd [8, 28]: 8.68
